For test [1], the target named is GalS1-ΔSTEM (Populus trichocarpa GalS1 lacking the stem region, residues 73-113) (Populus trichocarpa). Kind of test: SEC-MALS. In general terms: SEC sorts molecules by how far they enter the pores of the column.
For test [2], the target named is Populus trichocarpa galactan synthase 1 (GalS1), residues 73-495, tag removed (Populus trichocarpa). Kind of test: SEC-MALS.
Test [3] shares this target. Kind of test: SEC-MALS + other: SAXS.

The stoichiometry N is a count of units in the complex or per binding partner. “GalS1-ΔSTEM (Populus trichocarpa GalS1 lacking the stem region, residues 73-113) (domain or fragment)”: the stoichiometry N in test [1] was found to be 2. For the substance “Populus trichocarpa galactan synthase 1 (GalS1), residues 73-495, tag removed (enzyme)”, the stoichiometry N in test [2] and in test [3] was 2 each time.

These data come from publication PMC10115243 (Nature plants, 2023).
